T1: captured FAP (sFAP) (Homo sapiens, UniProt Q12884)
T1 sequence (Q12884 1-760): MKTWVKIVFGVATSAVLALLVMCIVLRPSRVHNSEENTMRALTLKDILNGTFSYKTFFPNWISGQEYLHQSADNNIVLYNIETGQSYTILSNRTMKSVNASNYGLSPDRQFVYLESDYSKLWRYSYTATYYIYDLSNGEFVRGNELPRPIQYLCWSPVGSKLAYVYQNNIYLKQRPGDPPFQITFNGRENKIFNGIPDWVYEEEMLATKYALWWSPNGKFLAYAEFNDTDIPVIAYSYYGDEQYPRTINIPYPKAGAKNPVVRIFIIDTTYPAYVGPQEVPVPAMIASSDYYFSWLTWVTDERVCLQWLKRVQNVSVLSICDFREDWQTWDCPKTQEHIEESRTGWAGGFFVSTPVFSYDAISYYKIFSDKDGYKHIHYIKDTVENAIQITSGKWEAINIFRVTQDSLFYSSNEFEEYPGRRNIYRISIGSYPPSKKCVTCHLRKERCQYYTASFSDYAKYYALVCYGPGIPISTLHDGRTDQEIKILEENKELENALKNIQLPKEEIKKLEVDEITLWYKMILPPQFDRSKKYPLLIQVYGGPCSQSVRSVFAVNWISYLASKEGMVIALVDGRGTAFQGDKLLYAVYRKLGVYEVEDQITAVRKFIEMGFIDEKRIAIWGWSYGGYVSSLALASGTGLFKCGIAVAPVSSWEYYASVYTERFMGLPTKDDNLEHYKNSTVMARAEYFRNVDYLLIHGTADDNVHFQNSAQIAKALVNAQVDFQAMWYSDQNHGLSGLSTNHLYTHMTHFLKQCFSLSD

T2: transmembrane human FAP on FAP expressing HEK293 cells (Homo sapiens, UniProt Q12884)
T2 construct: HEK293 cells were transduced with retrovirus encoding full length human FAP cDNA; host or cells: HEK293 (retroviral transduction, G418 selected)
T2 sequence (Q12884 1-760): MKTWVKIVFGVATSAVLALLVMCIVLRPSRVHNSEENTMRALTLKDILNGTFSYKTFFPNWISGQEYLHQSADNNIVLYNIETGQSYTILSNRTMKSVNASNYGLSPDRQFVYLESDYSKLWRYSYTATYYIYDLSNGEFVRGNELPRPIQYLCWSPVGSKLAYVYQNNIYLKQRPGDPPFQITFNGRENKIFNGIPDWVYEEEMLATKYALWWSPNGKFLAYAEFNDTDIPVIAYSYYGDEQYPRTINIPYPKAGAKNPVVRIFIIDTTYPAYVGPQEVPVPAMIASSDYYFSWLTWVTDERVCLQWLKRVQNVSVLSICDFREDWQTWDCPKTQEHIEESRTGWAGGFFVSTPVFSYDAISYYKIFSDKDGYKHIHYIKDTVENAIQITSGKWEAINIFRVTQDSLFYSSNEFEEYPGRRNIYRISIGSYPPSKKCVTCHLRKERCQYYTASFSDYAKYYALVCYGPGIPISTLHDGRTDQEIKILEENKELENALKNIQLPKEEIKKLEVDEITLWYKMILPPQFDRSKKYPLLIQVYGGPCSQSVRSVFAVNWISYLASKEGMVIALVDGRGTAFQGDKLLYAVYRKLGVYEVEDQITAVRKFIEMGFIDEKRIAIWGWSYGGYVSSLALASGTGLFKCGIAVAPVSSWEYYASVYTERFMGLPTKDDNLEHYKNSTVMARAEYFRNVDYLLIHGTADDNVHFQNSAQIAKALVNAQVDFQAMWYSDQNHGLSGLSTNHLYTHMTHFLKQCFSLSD

T3: directly coated FAP (FAP) (Homo sapiens, UniProt Q12884)
T3 sequence (Q12884 1-760): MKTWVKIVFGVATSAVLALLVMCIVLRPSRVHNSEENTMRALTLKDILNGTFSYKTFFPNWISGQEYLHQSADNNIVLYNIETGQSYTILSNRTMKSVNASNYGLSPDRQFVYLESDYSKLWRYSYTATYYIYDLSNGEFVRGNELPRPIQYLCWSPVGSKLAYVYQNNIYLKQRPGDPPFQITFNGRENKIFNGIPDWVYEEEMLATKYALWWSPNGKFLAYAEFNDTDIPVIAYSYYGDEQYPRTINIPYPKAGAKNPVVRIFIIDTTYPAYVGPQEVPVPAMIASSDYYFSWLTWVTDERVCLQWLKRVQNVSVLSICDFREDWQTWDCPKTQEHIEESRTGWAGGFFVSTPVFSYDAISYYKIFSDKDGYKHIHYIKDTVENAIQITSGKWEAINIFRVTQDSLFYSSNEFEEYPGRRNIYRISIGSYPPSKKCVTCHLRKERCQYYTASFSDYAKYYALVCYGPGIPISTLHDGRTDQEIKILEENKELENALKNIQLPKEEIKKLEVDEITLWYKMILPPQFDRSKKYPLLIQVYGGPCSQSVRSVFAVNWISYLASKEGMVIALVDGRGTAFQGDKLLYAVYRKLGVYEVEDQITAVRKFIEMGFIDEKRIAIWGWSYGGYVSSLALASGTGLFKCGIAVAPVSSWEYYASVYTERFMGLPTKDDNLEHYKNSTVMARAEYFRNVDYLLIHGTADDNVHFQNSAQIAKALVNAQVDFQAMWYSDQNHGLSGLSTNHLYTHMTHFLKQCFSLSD


Legend:
[1] = test system: directly coated FAP peptides mixture (cFAP); assay: direct ELISA on coated mixture of FAP peptides; type: binding, human; details: peptides 378-392, 622-636, 721-736
Description: (§1) ELISA assays were performed with varying antibody concentrations to validate the binding of the exemplary antibodies of the present invention to FAP and to be able to determine their half maximal effective concentration (EC50). For the exemplary recombinant human NI-206-18H2, NI-206-20A8, NI-206-6D3, ‘NI-206-14C5, NI-206-34C11, NI-206.82C2, NI-206.59B4, NI-206.22F7, NI-206.27E8, NI-206.12G4 and NI-206.17A6 antibodies, 96-well microplates (Costar, Corning, USA) were coated with FAP, with a mixture of the 3 peptides or with BSA (Sigma-Aldrich, Buchs, Switzerland) diluted to a concentration of 5 μg/ml in carbonate ELISA coating buffer (15 mM Na2CO3, 35 mM NaHCO3, pH 9.4) for the direct ELISA. For the capture ELISA, the microplates were coated with mouse anti-His monoclonal antibody (Clontech) diluted to a concentration of 3 μg/ml in PBS, the plates were then blocked, FAP or BSA were diluted to a concentration of 2 μg/ml in PBS and added to the plates to be captured. The binding efficiency of the antibodies was then tested.
(§2) The EC50 values were estimated by a non-linear regression using GraphPad Prism (San Diego, USA) software. […] The binding of NI-206.12G4 towards sFAP was not tested.

captured FAP (sFAP) = target: T1, captured FAP (sFAP); assay: capture ELISA, FAP captured via his-tag with coated anti-His antibody; type: binding; details: ELISA, varying antibody concentrations
Description: as §1, §2

[2] = target: T2, transmembrane human FAP on FAP expressing HEK293 cells; assay: flow cytometry of Cy5 labelled antibodies on FAP-HEK293 cells in pH adjusted PBS; type: cell-based; details: pH 7.4 to 6.2; 0.1-100 nM Cy5 labelled antibody
Description: To evaluate the binding of NI-206.82C2, NI-206.59B4, NI-206.27E8, NI-206.12G4, NI-206.18H2 and NI-206.6D3 to transmembrane human FAP, an FAP expressing HEK293 cell line was received from the National Institutes of Health, Bethesda, Md. The generation of this FAP expressing HEK293 cells is described in: J. Exp. Med. 2013 Vol. 210 No. 6 1125-1135. HEK293 cells were transduced with retrovirus encoding full length human FAP cDNA. Cloning was performed using Fast Cloning Pack and FastDigest restriction enzymes (both from Fermentas). Transient retroviral supernatants were generated by transfecting 293GP cells with the FAP plasmid using Lipofectamine 2000 (Invitrogen). Retroviral supernatants were collected at 48 h after transfection and centrifuged onto Retronectin-coated (10 μg/ml; Takara), non-tissue culture-treated 6-well plates at 2,000 G for 2 h at 32° C. These retroviral supernatants where then used to transduce HEK293 cells overnight. Transduced FAP-HEK293 cells were selected with 1 mg/ml G418 (CellGro).
500′000 FAP-HEK293 cells were incubated for 1 hr at 4° C. either with Cy5 labelled NI-206.82C2, NI-206.59B4, NI-206.27E8, NI-206.12G4, NI-206.18H2 or NI-206.6D3 or with Cy5 labelled 43A11 at four different antibody concentrations (0.1, 1, 10, and 100 nM) in seven different pH-adjusted PBS buffers (pH 7.4, 6.8, 6.6, 6.5, 6.4, 6.3 and 6.2). PBS buffers were adjusted to using MES monohydrate (Sigma Aldrich). Following incubation, cells were washed 3 times with 200 uL in matched pH-adjusted PBS, spun at 400G for 4 min, and resuspended in 200 μL of pH adjusted buffer.
To analyze antibody binding, fluorescent activated flow cytometry was performed using a BD Fortesa device for forward scatter, side scatter, and the mean fluorescent intensity (MFI) of the Cy5 channel was recorded using a […] laser excitation and 600/20 filter. Viable cells were gated by forward and side scatter, and singlets/doublet exclusion, and the MFI for Cy5 was quantified using FlowJo software Version 10.1.

[3] = target: T3, directly coated FAP (FAP); assay: direct ELISA on directly coated FAP; type: binding; details: ELISA, varying antibody concentrations
Description: as §1, §2

Row | Molecule | EC50 to the directly coated FAP peptides mixture (cFAP) [1] | binding to the captured FAP (captured FAP (sFAP)) | paratope-specific avidity (ΔMFI) under acidic conditions vs. at pH 7.4 [2] | binding to the directly coated FAP [3]
1 | NI-206.6D3: human-derived recombinant anti-FAP antibody; VH SEQ ID NO: 49, VL SEQ ID NO: 51 (antibody, listed as Homo sapiens, V domains shown) VH: EVQLVESGGGLVKPGESLRLSCAASGFTFSKAWMNWVRQGPGKGLEWVGRVKSKTDGGTTDYAAPVKGRFTISRDDSKDTVFLQMNSLKTEDTAVYYCSIQFIVVGDRGRDDQYMDVWGKGTTVTVSS VL: SYVLTQPPSVSVSPGQTARITCSGDALPKQYAFWYQQKPGQAPVIMIYKDNQRPSGIPERFSGSSSGTTVTLTISGVQTEDEADYYCQSADSTNTHVVFGGGTKLTVL | did not show any binding | strongly and similarly bind | increased | strongly and similarly bind
2 | NI-206.82C2: human-derived recombinant anti-FAP antibody; VH SEQ ID NO: 2 or 4 (PIMC), VL SEQ ID NO: 6 (antibody, V domains shown) VH: QVQLQQSGPGLVKPSQTLSLTCAISGDSVSSNSVTWNWIRQSPSRGLEWLGRTYYRSKWYNDYAVSVKGRITINPDTSKNQFYLQLKSVTPEDAAVYYCARDSSILYGDYWGQGTLVTVSS VL: QAVLTQPSSLSASPGASASLTCTLPSGINVGTYRIFWFQQKPGSPPQYLLSYKSDSDNHQGSGVPSRFSGSKDASANAGILLISGLQSEDEADYYCMIWHSSAWVFGGGTKLTVL | did not show any binding | specifically and strongly binds | increased | less efficiently
3 | NI-206.18H2: human-derived recombinant anti-FAP antibody; VH SEQ ID NO: 41, VL SEQ ID NO: 43 (antibody, listed as Homo sapiens, V domains shown) VH: QVQLQESGPRLVKPSETLSLTCTVSGYSISNGYYWGWIRQPPGQGLEWIASVWHSGNTYHNPSLKSRVTILVDTLKNQFSLNLKSVTAADTALYYCARSYTRNDVGAFETWGQGTMVTVSS VL: SYELTQPPSVSVSPGQTARIACSGDELPKRYAYWYQQKSGQAPVLVMYEDTKRPSGIPERLSGSSSGTVTTLTISGAQVEDEADYYCYSTAPSGNHTFVFGTGTRVTVL | did not show any binding | specifically, strongly and similarly bind | increased | specifically, strongly and similarly bind

Reference: US20180022822A1, “NOVEL ANTI-FIBROBLAST ACTIVATION PROTEIN (FAP) BINDING AGENTS AND USES THEREOF” (Mabimmune Diagnostics AG, priority 2016, published 2018)
